[ ]: non-standard residue; d: D form. The star is where a group is joined. dPhe(4-NO2) = N[C@H](Cc1ccc([N+](=O)[O-])cc1)C(=O)O; 2Nal = N[C@@H](Cc1ccc2ccccc2c1)C(=O)O; Benzenesulfonyl = O=S(=O)(c1ccccc1)*; d2Thi = N[C@H](Cc1cccs1)C(=O)O; PyrProp = pyridinepropionyl; Nle = CCCC[C@H](N)C(=O)O
B1: Compound No. 7 in the Table, BzlSO2-Nle-Ala-His-DpNO2Phe-Lys-Trp-NH2 (peptide)
peptide: Benzenesulfonyl-[Nle]AH[dPhe(4-NO2)]KW-NH2
SMILES: CCCC[C@H](NS(=O)(=O)c1ccccc1)C(=O)N[C@@H](C)C(=O)N[C@@H](Cc1c[nH]cn1)C(=O)N[C@H](Cc1ccc([N+](=O)[O-])cc1)C(=O)N[C@@H](CCCCN)C(=O)N[C@@H](Cc1c[nH]c2ccccc12)C(N)=O
B2: Compound No. 12 in the Table, Ac-Nle-Ala-His-L2,Nap-Lys-Trp-NH2 (peptide)
peptide: Ac-[Nle]AH[2Nal]KW-NH2
SMILES: CCCC[C@H](NC(C)=O)C(=O)N[C@@H](C)C(=O)N[C@@H](Cc1c[nH]cn1)C(=O)N[C@@H](Cc1ccc2ccccc2c1)C(=O)N[C@@H](CCCCN)C(=O)N[C@@H](Cc1c[nH]c2ccccc12)C(N)=O
B3: Compound No. 9 in the Table, Ac-Nle-Ala-His-DThi-Lys-Trp-NH2 (peptide)
peptide: Ac-[Nle]AH[d2Thi]KW-NH2
SMILES: CCCC[C@H](NC(C)=O)C(=O)N[C@@H](C)C(=O)N[C@@H](Cc1c[nH]cn1)C(=O)N[C@H](Cc1cccs1)C(=O)N[C@@H](CCCCN)C(=O)N[C@@H](Cc1c[nH]c2ccccc12)C(N)=O
B4: alpha-MSH (Melanocyte Stimulating Hormone), Acetyl-Ser-Tyr-Ser-Met-Glu-His-Phe-Arg-Trp-Gly-Lys-Pro-Val-NH2 (peptide)
peptide: Ac-SYSMEHFRWGKPV-NH2
B5: Compound No. 10 in the Table, PyrProp-Nle-Ala-His-DpNO2Phe-Lys-Trp-NH2 (peptide)
peptide: PyrProp-[Nle]AH[dPhe(4-NO2)]KW-NH2
B6: Compound No. 8 in the Table, BzlSO2-Nle-Ala-His-DThi-Lys-Trp-NH2 (peptide)
peptide: Benzenesulfonyl-[Nle]AH[d2Thi]KW-NH2
SMILES: CCCC[C@H](NS(=O)(=O)c1ccccc1)C(=O)N[C@@H](C)C(=O)N[C@@H](Cc1c[nH]cn1)C(=O)N[C@H](Cc1cccs1)C(=O)N[C@@H](CCCCN)C(=O)N[C@@H](Cc1c[nH]c2ccccc12)C(N)=O

Biological target: melanocortin-1 receptor (MC-1r) on murine melanocytes (line S91 Cloudman) (murine, UniProt Q01727 1-315)
Sequence (Q01727 whole entry): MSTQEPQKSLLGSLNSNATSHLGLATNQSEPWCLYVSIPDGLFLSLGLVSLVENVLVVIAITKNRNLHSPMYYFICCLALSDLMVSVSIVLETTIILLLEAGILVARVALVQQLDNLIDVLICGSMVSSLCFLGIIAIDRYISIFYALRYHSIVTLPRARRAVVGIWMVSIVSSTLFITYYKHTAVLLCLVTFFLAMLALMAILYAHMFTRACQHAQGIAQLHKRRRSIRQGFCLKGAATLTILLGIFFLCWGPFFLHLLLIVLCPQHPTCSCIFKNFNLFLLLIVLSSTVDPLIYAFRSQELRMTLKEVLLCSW
Assay: cell-based or functional assay

Binder | cAMP production (as % of α-MSH)
B1 | 100 % of α-MSH
B2 | 50 % of α-MSH
B3 | 75 % of α-MSH
B4 | 100 % of α-MSH
B5 | 115 % of α-MSH
B6 | 65 % of α-MSH

From patent publication US7268108 (INSTITUT EUROPEAN DE BIOLOGIE CELLULAIRE, dated 2007)
